Reference: patent publication US20070134734

Assays:
[1] = molecular target: GST-fused eIF4B (GST gene fused to the N-terminus), cell-free synthesized (UniProt P23588)
[2] = molecular target: GST-fused stress-induced phosphoprotein 1 (STIP1) (GST gene fused to the N-terminus), cell-free synthesized (UniProt P31948)

Sequence of GST-fused eIF4B (GST gene fused to the N-terminus), cell-free synthesized (P23588 whole entry, the tested form may be a part): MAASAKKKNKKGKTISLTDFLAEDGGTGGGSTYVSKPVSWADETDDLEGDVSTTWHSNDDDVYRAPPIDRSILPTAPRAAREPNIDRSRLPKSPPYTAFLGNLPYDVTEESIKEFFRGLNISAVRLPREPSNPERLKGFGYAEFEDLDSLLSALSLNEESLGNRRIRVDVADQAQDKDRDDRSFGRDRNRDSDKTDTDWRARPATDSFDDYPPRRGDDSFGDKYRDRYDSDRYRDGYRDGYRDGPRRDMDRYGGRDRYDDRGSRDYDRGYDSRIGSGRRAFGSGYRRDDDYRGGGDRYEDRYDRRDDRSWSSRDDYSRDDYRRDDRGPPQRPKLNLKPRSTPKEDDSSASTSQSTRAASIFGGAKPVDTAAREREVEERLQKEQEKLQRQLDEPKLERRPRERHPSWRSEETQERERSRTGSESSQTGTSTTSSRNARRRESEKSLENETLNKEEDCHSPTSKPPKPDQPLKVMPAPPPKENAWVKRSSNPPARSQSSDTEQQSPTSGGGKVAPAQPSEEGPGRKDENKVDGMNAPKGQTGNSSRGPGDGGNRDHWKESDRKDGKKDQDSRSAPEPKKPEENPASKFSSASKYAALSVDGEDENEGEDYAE

Substance: human CaMKIIδ protein (calmodulin kinase II delta), synthesized in a wheat embryo cell-free protein synthesis system
- in vitro phosphorylation assay ([γ-32P]ATP, GST-fused substrate on glutathione resin, SDS-PAGE autoradiography) [1]: there was reproduced the reaction in which GST-fused eIF4B and STIP1 were phosphorylated by CaMKIIδ
- in vitro phosphorylation assay ([γ-32P]ATP, GST-fused substrate on glutathione resin, SDS-PAGE autoradiography) [2]: there was reproduced the reaction in which GST-fused eIF4B and STIP1 were phosphorylated by CaMKIIδ
